Assay results taken from paper PMC12149299 (2025).

Key:
[1] = biological target: HIV-1 gp120 protein from the JRCSF.JB strain (HIV-1, UniProt P20871 32-503); assay: BLI
[2] = biological target: HIV-1 gp120 protein from the YU2.DG strain (HIV-1, UniProt P35961 32-498); assay: BLI

B1: FD22 (antibody)
chain 1: QVQLSQSGGGAVQPGKSLTLSCRAYGFHLFSYVVVWVRQTPQNGLEWVAGAASGGWPQEFMNSVRGRFSISRDDYTVSLQMNALRVDDSGLYFCAQERGLHRLDGAVKFGRWFRAWGQGSQVVVTS
chain 2: QSALTQPASVSGSPGQSITLSCTGADNSVSWYQVVPGRAPKLLIFEVNVRPSEVSDRFSGSKSGDTASLTISRLQIEDESDYYCVTRRGDVTYLFGSGTRVSVL
modifications: biotin (EZ-Link NHS-LC-Biotin) in the competition ELISA only | biotin (EZ-Link NHS-LC-Biotin) in the competition ELISA only
Kd [1]: 18.1 nM | Kd [2]: 12.1 nM
